From US20230183371A1 (University of Texas, published 2023)

T1: recombinant human CD79b protein (human, UniProt P40259 29-159, limits assumed)
T1 sequence (looked up): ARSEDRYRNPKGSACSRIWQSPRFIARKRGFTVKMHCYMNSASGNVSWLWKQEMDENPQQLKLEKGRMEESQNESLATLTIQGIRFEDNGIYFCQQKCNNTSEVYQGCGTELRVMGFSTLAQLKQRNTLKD

T2: human CD79b expressed on cells (human, UniProt P40259 29-229)
T2 construct: whole, on cells; also called human CD79b expressed on mouse fibroblast L cells; CD79b on B cell lymphoma cell lines (Daudi, SUDHL6)
T2 sequence (looked up): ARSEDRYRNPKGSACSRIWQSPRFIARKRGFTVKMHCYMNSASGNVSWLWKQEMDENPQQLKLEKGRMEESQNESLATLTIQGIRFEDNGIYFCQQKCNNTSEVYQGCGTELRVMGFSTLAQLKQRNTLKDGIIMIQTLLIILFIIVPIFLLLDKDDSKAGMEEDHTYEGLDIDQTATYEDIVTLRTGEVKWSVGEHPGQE


Columns and labels:
[1] = target: T1, recombinant human CD79b protein; assay: Octet assay
[2] = target: T1, recombinant human CD79b protein; assay: ELISA on recombinant human CD79b protein
[3] = target: T1, recombinant human CD79b protein; assay: EC50 column of the drawn table; the table does not name the assay, the text gives an ELISA on recombinant human CD79b protein (FIG. 2B)
[4] = target: T2, human CD79b expressed on cells; assay: ELISA on mouse fibroblast L cells expressing human CD79b
Excerpt: Binding of anti-CD79b antibodies to human CD79b: Full length anti-CD79b monoclonal antibodies (clones 5B and 28B) isolated from hybridoma supernatants were used to test binding to human CD79b expressed on mouse fibroblast L cells by ELISA (FIG. 7).

Binder | Kd [1] [nM] | EC50 (read off the curve) [2] [µg/mL] | EC50 [3] [µg/mL] | EC50 [4] [µg/mL] | EC50 (read off the curve) [4] [µg/mL]
anti-CD79b monoclonal antibody clone 5B (antibody, V domains shown, Full length monoclonal antibody isolated from hybridoma supernatant) VH: EVQLQESGAELVKPGASVKMSCKASGYTFTSYWMHWVKQRPGQGLEWIGAIDPSDSYTGYNQKFKGKATLTVDTSSSTAYMHLSSLTSEDSAVYFCTRSYYGNSWFDYWGQGTLVTVSA VL: DIVLTQSPASLAVSLGQRATISCKASQSVDYEGDSYMNWYQQKPGQPPKLLIYAASNLESGIPARFSGSGSGTDFTLNIHPVEEEDAATYHCQQSNEDPFTFGGGTKLEIK | – | – | – | 0.0409 | ~0.04
anti-CD79b monoclonal antibody clone 28B (antibody, V domains shown, Full length monoclonal antibody isolated from hybridoma supernatant) VH: EVQLQESGAELVKPGASVKMSCKASGYTFTSYWMHWVKQRPGQGLEWIGAIDPSDSYTGYNQKFKGKATLTVDTSSSTAYMHLSSLTSEDSAVYFCTRSYYGNSWFAYWGQGTLVTVSA VL: DIVLTQSPASLAVSLGQRATISCKASQSVDYDGDSYMNWYQQKPGQPPKLLIYVASNLESGIPARFSGSGSGTDFTLNIHPVEEEDAATYYCQQSNEDPFTFGSGTKLEIN | – | – | – | 0.0252 | ~0.02

Now from value to binder:

Kd [1] [nM] | EC50 (read off the curve) [2] [µg/mL] | EC50 [3] [µg/mL] | EC50 [4] [µg/mL] | EC50 (read off the curve) [4] [µg/mL] | Binder
2 | ~0.03 | 0.0301 | – | – | anti-human CD79b monoclonal antibody clone 45 (IgG2) (antibody, V domains shown) VH: EVQLQESGAELVRPGALVKLSCRASGFNIKDYYMHWVKQRPEQGLEWIGWIDPENGNSIYDPKFQGKASITADTSSNTAYLQLSSLTSEDTAVYYCAVDLYYGRGTLVTVSA VL: NIMMTQSPSSLAVSAGEKVTMRCKSSQSVLYSSNQKNYLAWYQQKPGQSPKLLIYWASTRESGVPDRFTGSGSGTDFTLTISSVQAEDLAVYYCHQFLSSYTFGGGTKLEIK
1.44 | ~0.02 | 0.0162 | – | – | anti-human CD79b monoclonal antibody clone 14 (IgG1) (antibody, V domains shown) VH: EVQLQESGPELKKPGETVKISCKASGYTFTDYSMHWVKQAPGKGLKWMGWINTETGEPTYADDFKGRFAFSLETSASTAYLQINNLKNDDTATYFCNMDSWGQGTSVTVSS VL: QIVLTQSPAIMSASPGEKVTMTCSASSSVSYMWWYHQKPGSSPRLLIFDTSNLASGVPVRFSGSGSGTSYSLTISRMEAEDAATYYCQQWTSYPYTFGGGTKLEIK
